Test results taken from the RNAGym collection of RNA variant scans (doi:10.1073/pnas.2313332121).

B1: TPR t1 (parent)
chain: GACCAAUCUGCCCUCAGAGCUCGAGAACAUCUUCGGAUGCAGAGGAGGCAGGCUUCGGUGGCGCGAUAGCGCCAACGUCCUCAACCUCCAAUGCAUCCCACCACAUGAUGAUGCCUGAAGAGCCUUGGUUUUUUG

Variants of: B1
Assay: polymerase ribozyme fitness, log enrichment relative to wild type (log ratio); higher = more active; in vitro selection for triplet polymerase activity
Method in brief: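 PCR was used to build mutant libraries for each subunit of a heterodimeric triplet polymerase ribozyme, which were then transcribed. A single in vitro selection round, in triplicate, used a frozen incubation at −7 °C and recovered extended constructs by gel excision, streptavidin beads and RT-PCR. Fitness is the logarithm of genotype enrichment relative to wild-type enrichment, averaged over replicates with inverse-variance weights. The logarithm is base 2, and after Illumina sequencing only genotypes with ≥10 input reads and ≥1 read per output were kept.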

In order of falling “polymerase ribozyme fitness (log ratio)” value:
1. GACCAAUCGGCCCUCAGAGCUCGAGAACAUCUUCGGAUACAGAGGAGGCAGGCUUCGGUGGCGCGAUAGCGCCAACGUCCUCAACCUCCAAUGCAUCCCACCACAUGAUGAUGCCUGAAGUGCCUUGGUUCUUUG [U9G G39A A121U U131C]  2.2
2. GACCAAUCGGCCCUCAGAGCUCGAGAACAUCUUCGGAUGCAGAGGAGGCAGGCUUCGGUGGCGCGAUAGCGCCAACGUCCUCAACCUCCAAUGCAUCCCACCACAUGAUGAUGCCUGAAGAGCAUUGGUUGUUUG [U9G C124A U131G]  1.79
3. GACCAAUCGCCCCUCAGAGCUCGAGAACAUCUUCGGAUGCAGAGGAGGCAGGCUUCGGUGGCGCGAUAGCGCCAACGUCCUCAACCUCCAAUGGAUCCCACCACAUGAUGAUGCCUGAAGCGCGUUGGUUUUUUG [U9G G10C C94G A121C C124G]  1.48
4. GACCAAUCGGCCCUCAGAGCUCGAGAACAUCUUCGGAUGCAGAGGAGGCAGGCUUCGGUGGCGCGAUAGCGCCAACGUCCUCAACCUCCAAUGCAUCCCACCAUAUGAUGAUGCCUGAAGAGCCUUGGUUUUUUG [U9G C104U]  0.944
5. GACCAAUCGGCCCUCAGAGCUCGAGAACAUCUUCGGAUGCAGAGGAGGCAGGCUUCGGUGGCGCGAUAGCGCCAACGUCCUCAACCUCUAAUGCAUCCCACCACAUGAUGAUGCCUGAAGAGCCUUGGUUUUUUG [U9G C89U]  0.304
6. GACCAAUCGGCCCUCAGAGCUCGAGAACAUCUUCGGAUGCAGAGAAGGCAGGCUUCGGUGGCGCGAUAGCGCCAACGUCCUCAACCUCCAAUGCAUCCCACCACAUGAUGAUGCCUGAAGAGCCUUGGUUUUUUG [U9G G45A]  0.293
7. GACCAAUCGGCCCUCAGAGCUCGAGAACAUCUUCGGAUGCAGAGGAGGCAGGCUUCGGUGGCGCGAUAGCUCCAACGUCCUCAACCUCCAAUGCAUCCCACCACAUGAUGAUGCCUGAAGAGCCUUGGUUUUUUG [U9G G71U]  0.107
8. GACCAAUCGGCCCUCAGAGCUCGAGAACAUCUUCGGAUACAGAGGAGGCAGGCUUUGGUGGCGCGAUAGCGCCAACGUCCUCAACCUCCAAUGCAUCCCACCACAUGAUGAUGCCUGAAGAGCCUUGGUUUUUUG [U9G G39A C56U]  0.0691
9. GACCAAUCGGCCCUCAGAGCUCGAGAACAUCUUCGGAUGCAGAGGAGGCAGGCUUCGGUGGCGCGAUAGCGCCAACGUCCUCAAUCUCCAAUGCAUCCCACCACAUGAUGAUGCCUGAAGAGCCUUGGUUUUUUG [U9G C85U]  -0.222
10. GACCAAUCGGCCCUCAGAGCUCGAGAACAUCUUCGAAUGCAGAGGAGGCAGGCUUCGGUGGCGCGAUAGCGCCAACGUCCUCAACCUCCAAUGCAUCCCAGCACAUGAUGAUGCCUGAAGUGCCUUGGUUUUUUG [U9G G36A C101G A121U]  -0.24
11. GACCAAUCGGCCCUCAGAGCUCGAGAACAUCUUCGGAUGCAGAGGAGGCAGGCUUCAGUGGCGCGAUAGCGCCAACGUACUCAACCUCCAAUGCAUCCCACCACAUGAUGAUGCCUGAAGAGCCUUGGUUUUUUG [U9G G57A C79A]  -1.03
12. GACCAAUCGGCCCUCAGAGCUCGAGAACAUCUUCGGAUGCAGAGGAGUCAGGCUUCGGUGGCGCGAUAGCGCCAACGUCCUCAACCUACAAUGCAUCCCACCACAUGAUGAUGCCUGAAGAGCCUUGGUUUUUUG [U9G G48U C88A]  -1.04
13. GACCAAUCGGCCCUCAGAGCUCGAGAACAUCUUCGGAUGCAGAGGAGGCAGGCUUCGGUUGUGCGAUAGCGCCAACGUCCUCAACCUCCAAUGCAUCCCACCACAUGAUGAUGCCUGAAGAGCCUUGGUUUUUUG [U9G G60U C62U]  -1.11
14. GACCAAUCGGCCCUCAGAGCUCGAGAACAUCUUCGGAUGCAGAGGAGUCAGGCUUCGGUGGCGCGAUAGCGCCAACGUCCUCAACCUCCAAUGCAUCCCACCACAUGAUGAUGCCUGAAGAGCCUUGGUUUUUUG [U9G G48U]  -1.27
15. GACCAAUCGGCCCUCAGAGCUCGAGAACAUCUUCGGAUGCAGAGAAGGUAGGCUUCGGUGGCGCGAUAGCGUCAACGUCCUCAACCUCCAAUACAUCCCACCACAUGAUGAUGCCUGAAGAGCCUUGGUUUUUUG [U9G G45A C49U C72U G93A]  -1.56
16. GACCAAUCGGCCCUCAGAGCUCGAGAACAUCUUCGGAUGCAGAGGAGUCAGGCUUCGGUGGCGCGAUAGCGCCAACGUCCUCAACCUCCAAUCCAUCCCACCACAUGAUGCUGCCUGAAGAGCCUUGGUUUUUUG [U9G G48U G93C A111C]  -1.91
17. GACCAAUCGCACCUAAGAGCUCGAGAACAUCUUCGGGUGCAGAGGAGGCAGGCUUCGGUGGCGCGAUAGCGCCAACGCCCUCAAUCUCCAAUGCUUCCCACCACAUGAUGAUGCCUGAAGAGUCUUGGUUUUUUG [U9G G10C C11A C15A A37G U78C C85U A95U C123U]  -3.97
18. GACCAAUCGGCCCUCAGAGCUCGAGAACAUCUUCGGAUGCAAAGGAGGCAGGCUUCGGUGGCGCGAUAGCGCCAACGUCCUCAACCUCCAAUGCAUCCCACCACUUGAUGAUGCCUGAAGAGCCUUGGUUUUUUG [U9G G42A A105U]  -4.37
19. GACCAAUCGGCCCUCAGAGCUCGAGAACAUCUUCGGAUGCACAGAAGGCAGGCUUCGGUGGCGCGAUAGCGCCAACGUCCUCAAGCUCCAAUGCAUCCCACCACAUGAUGAUGCCUGAAGAGCCUUGGUUUUUUG [U9G G42C G45A C85G]  -4.6
20. GACCAAUCGGCCCUCAGAGCUCGAGAACAUCUUCGGAUGCAGAGGAGGCAGGCUUCGGUGGCGCGAUAGCGCCAACACCCUCAACCUCCAAUGCAUCACACCACAUGAUGAUCCCUGAAGAGCCUUGGUUUUUUG [U9G G77A U78C C98A G113C]  -5.07
21. GACCAAUCGGCCCUCAGAGCUCGAGAACAUCUUCGUAUGCAGAGGAGGCAGGCUUCGGUCGCGCGAUGGCGCCAACGACCUCAACCUACAAUGCAUCCCACCACAUGAUGAUGCCUGAAGAGCCUUGGUUUUUUG [U9G G36U G60C A68G U78A C88A]  -6.1
